For data set [1], the target named is T1, benzoate CoA ligase (BadA) (Rhodopseudomonas palustris, UniProt Q6NC13, H333A/I334A, form not given).
T1 construct: recombinant in E. coli BL21 (DE3), Ni-NTA purified
Nature of the data set: X-ray crystal structure. Format: binding. The following applies: acyl-adenylate intermediate in active site; thiolation conformation, no CoA.

Data set [2] has as its target T2, Malonyl-CoA synthetase from Rhizobium triofli (RtMCS) (Rhizobium leguminosarum, UniProt Q9ZIP5).
T2 construct: gene matB; recombinant in E. coli, Ni-NTA purified
T2 sequence (Q9ZIP5 1-504): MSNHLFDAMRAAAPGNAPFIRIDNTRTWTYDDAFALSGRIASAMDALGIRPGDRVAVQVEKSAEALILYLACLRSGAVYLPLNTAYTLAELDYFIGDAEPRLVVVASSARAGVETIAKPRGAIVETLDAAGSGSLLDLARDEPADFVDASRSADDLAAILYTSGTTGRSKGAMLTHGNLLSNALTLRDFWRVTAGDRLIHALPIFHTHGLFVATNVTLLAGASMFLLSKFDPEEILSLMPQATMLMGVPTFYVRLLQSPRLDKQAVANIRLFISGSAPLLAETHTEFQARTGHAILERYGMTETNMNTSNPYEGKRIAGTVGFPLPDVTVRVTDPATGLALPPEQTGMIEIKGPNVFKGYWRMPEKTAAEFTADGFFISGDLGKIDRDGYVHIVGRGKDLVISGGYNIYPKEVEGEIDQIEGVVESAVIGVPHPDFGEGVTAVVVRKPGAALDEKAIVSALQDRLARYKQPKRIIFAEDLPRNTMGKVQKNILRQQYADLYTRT
Nature of the data set: HPLC and LC-ESI-MS of malonyl-CoA. Format: biochemical. The conditions noted are these: 5 mM ATP, 2 mM CoA, 5 mM Mg2+, pH 7.5, room temperature; ATP regeneration.

Substrate in data set [3]: CC(C)(COP(=O)(O)OP(=O)(O)OC[C@H]1O[C@@H](n2cnc3c(N)ncnc32)[C@H](O)[C@@H]1OP(=O)(O)O)[C@@H](O)C(=O)NCCC(=O)NCCSC(=O)CCCCCCc1ccccc1
Nature of the data set: HPLC product formation, Michaelis-Menten fit. The following applies: 60 μM malonyl-CoA, 100 mM potassium phosphate pH 7.4, 1 mM EDTA, 30 °C. Format: biochemical, Pinus sylvestris. An excerpt: (§1) HPLC product formation, Michaelis-Menten fit on stilbene synthase (STS) from Pinus sylvestris

Substrate in data set [4]: CC(C)(COP(=O)(O)OP(=O)(O)OC[C@H]1O[C@@H](n2cnc3c(N)ncnc32)[C@H](O)[C@@H]1OP(=O)(O)O)[C@@H](O)C(=O)NCCC(=O)NCCSC(=O)CCCCCc1ccccc1
In words: HPLC product formation, Michaelis-Menten fit. The following applies: 60 μM malonyl-CoA, 100 mM potassium phosphate pH 7.4, 1 mM EDTA, 30 °C. The format is biochemical, Pinus sylvestris.
Excerpt: as §1

Substrate in data set [5]: CC(C)(COP(=O)(O)OP(=O)(O)OC[C@H]1O[C@@H](n2cnc3c(N)ncnc32)[C@H](O)[C@@H]1OP(=O)(O)O)[C@@H](O)C(=O)NCCC(=O)NCCSC(=O)CCCCc1ccc(F)cc1
In words: HPLC product formation, Michaelis-Menten fit. Format: biochemical, Pinus sylvestris. The conditions noted are these: 60 μM malonyl-CoA, 100 mM potassium phosphate pH 7.4, 1 mM EDTA, 30 °C.
Excerpt: as §1

Substrate in data set [6]: CC(C)(COP(=O)(O)OP(=O)(O)OC[C@H]1O[C@@H](n2cnc3c(N)ncnc32)[C@H](O)[C@@H]1OP(=O)(O)O)[C@@H](O)C(=O)NCCC(=O)NCCSC(=O)Cc1ccc(-c2ccccc2)cc1
In words: HPLC product formation, Michaelis-Menten fit. Format: biochemical, Pinus sylvestris. The conditions noted are these: 60 μM malonyl-CoA, 100 mM potassium phosphate pH 7.4, 1 mM EDTA, 30 °C.
Excerpt: as §1

Substrate in data set [7]: CC(C)(COP(=O)(O)OP(=O)(O)OC[C@H]1O[C@@H](n2cnc3c(N)ncnc32)[C@H](O)[C@@H]1OP(=O)(O)O)[C@@H](O)C(=O)NCCC(=O)NCCSC(=O)c1cnc(Cl)s1
In words: HPLC product formation, Michaelis-Menten fit. Format: biochemical, Pinus sylvestris. The conditions noted are these: 60 μM malonyl-CoA, 100 mM potassium phosphate pH 7.4, 1 mM EDTA, 30 °C.
Excerpt: as §1

Substrate in data set [8]: Cc1ncc(C(=O)SCCNC(=O)CCNC(=O)[C@H](O)C(C)(C)COP(=O)(O)OP(=O)(O)OC[C@H]2O[C@@H](n3cnc4c(N)ncnc43)[C@H](O)[C@@H]2OP(=O)(O)O)s1
In words: HPLC product formation, Michaelis-Menten fit. The format is biochemical, Pinus sylvestris. The conditions noted are these: 60 μM malonyl-CoA, 100 mM potassium phosphate pH 7.4, 1 mM EDTA, 30 °C.
Excerpt: as §1

Substrate in data set [9]: Cc1ncsc1C(=O)SCCNC(=O)CCNC(=O)[C@H](O)C(C)(C)COP(=O)(O)OP(=O)(O)OC[C@H]1O[C@@H](n2cnc3c(N)ncnc32)[C@H](O)[C@@H]1OP(=O)(O)O
Nature of the data set: HPLC product formation, Michaelis-Menten fit. The format is biochemical, Pinus sylvestris. The following applies: 60 μM malonyl-CoA, 100 mM potassium phosphate pH 7.4, 1 mM EDTA, 30 °C.
Excerpt: as §1

T1 sequence (Q6NC13 entry or part of it H333A/I334A, form open): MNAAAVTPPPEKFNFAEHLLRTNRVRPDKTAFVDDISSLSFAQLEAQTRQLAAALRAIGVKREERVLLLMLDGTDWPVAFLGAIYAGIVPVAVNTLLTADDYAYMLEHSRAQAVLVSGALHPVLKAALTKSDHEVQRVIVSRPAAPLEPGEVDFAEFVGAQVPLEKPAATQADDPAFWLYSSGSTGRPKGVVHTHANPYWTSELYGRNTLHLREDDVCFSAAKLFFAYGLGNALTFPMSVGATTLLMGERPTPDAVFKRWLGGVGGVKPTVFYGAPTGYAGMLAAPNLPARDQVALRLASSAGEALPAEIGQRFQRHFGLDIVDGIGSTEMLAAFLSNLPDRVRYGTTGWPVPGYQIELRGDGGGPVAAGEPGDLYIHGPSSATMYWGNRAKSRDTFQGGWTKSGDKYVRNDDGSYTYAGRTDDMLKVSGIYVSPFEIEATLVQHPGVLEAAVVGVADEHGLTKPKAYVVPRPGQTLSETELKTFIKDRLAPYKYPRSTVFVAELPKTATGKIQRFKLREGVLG

Consider `Nc1ncnc2c1ncn2[C@@H]1O[C@H](COP(=O)(O)OC(=O)c2cnc(Cl)s2)[C@@H](O)[C@H]1O` [2-chloro-1,3-thiazole-5-carboxyl-AMP], for which, in [1], the X-ray crystal structure result was “in complex with a 2-chloro-1,3-thiazole-5-carboxyl-AMP (2Cl5C-AMP) (PDB entry 6M2U)”.
For the molecule `Cc1ncc(C(=O)OP(=O)(O)OC[C@H]2O[C@@H](n3cnc4c(N)ncnc43)[C@H](O)[C@@H]2O)s1` [2-methylthiazole-5-carboxyl-AMP], the X-ray crystal structure in data set [1] is given as 2-methylthiazole-5-carboxyl-AMP (2M5C-AMP) (PDB entry 6M2T) intermediate were obtained.
For the molecule `O=C(O)CC(=O)O` [malonic acid], in [2], the “HPLC and LC-ESI-MS of malonyl-CoA” value is “Malonyl-CoA was chemo-enzymatically prepared from malonate, CoA, and ATP using RtMCS”.

B1: stilbene synthase (STS) from Pinus sylvestris (Pinus sylvestris) (protein)
chain: MGGVDFEGFRKLQRADGFASILAIGTANPPNAVDQSTYPDFYFRITGNEHNTELKDKFKRICERSAIKQRYMYLTEEILKKNPDVCAFVEVPSLDARQAMLAMEVPRLAKEAAEKAIQEWGQSKSGITHLIFCSTTTPDLPGADFEVAKLLGLHPSVKRVGVFQHGCFAGGTVLRMAKDLAENNRGARVLVICSETTAVTFRGPSETHLDSLVGQALFGDGASALIVGADPIPQVEKACFEIVWTAQTVVPNSEGAIGGKVREVGLTFQLKGAVPDLISANIENCMVEAFSQFKISDWNKLFWVVHPGGRAILDRVEAKLNLDPTKLIPTRHVMSEYGNMSSACVHFILDQTRKASLQNGCSTTGEGLEMGVLFGFGPGLTIETVVLKSVPIQ
notes: recombinant in E. coli BL21 (DE3), Ni-NTA purified, size-exclusion
In the case of B1, the Michaelis constant (Km) was 29.42 µM in data set [3]; 43.89 µM in [4]; 4.15 µM in data set [5]; 23.24 µM in data set [6]; 12.77 µM in data set [7]; 3.87 µM in data set [8]. The Michaelis-Menten constant (Km) in data set [9] came out at 3.82 µM. Also, the kcat in [3] amounted to 0.0045 s⁻¹; in data set [6], 0.0035 s⁻¹; in data set [7], 0.00317 s⁻¹; in data set [8] it was 0.000167 s⁻¹; in data set [9], 0.00267 s⁻¹.

The Km is the concentration of substrate that gives half-maximal velocity. The kcat is the number of substrate molecules converted per active site and unit of time at saturation.
